Literature values as cited in article PMC9623233 (Clinical Cancer Research, 2022).
Read-outs that look alike come from different tables or passages of the source.

Settings: cited from earlier work

**Q.** Which results are given for “mirvetuximab soravtansine: α-FR–targeted antibody–drug conjugate with maytansine payload”?
**A.** Pneumonitis (combined with bevacizumab): 9%; Pneumonitis (single agent): 2.9%
